± gives the half width of the 95% confidence interval.
Columns and labels:
[1] = folding stability dG unfold from trypsin proteolysis; higher = more stable
In short: (§1)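 Digests were run with trypsin and chymotrypsin at 11 concentrations in threefold dilutions, plus a no-protease condition, on designed mini-proteins in a PA-tagged cDNA display construct. The mini-proteins were under 80 residues, had no cysteine, and were kept only when AlphaFold2 dimer inter-PAE was above 15. After sequencing, Bayesian fitting of the counts gave K50, from which unfolding free energy was derived against a sequence-predicted unfolded-state K50 and a shared folded-state K50, per protease or combined.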

[2] = folding stability dG unfold from chymotrypsin proteolysis; higher = more stable
In short: as §1

[3] = folding stability dG unfold (combined trypsin and chymotrypsin); higher = more stable
In short: as §1

Sequence	folding stability dG unfold [1] [kcal/mol]	folding stability dG unfold [2] [kcal/mol]	folding stability dG unfold [3] [kcal/mol]
SAGGSAGGSEKTLVTRTPDGYLLTLTEFTLPDGSKVTLATITFPNTGKTVTVPASLVPADATGSAGGSAGGS [r12_797_TrMRF]	1.45 ± 0.028	3.061 ± 0.011	2.63 ± 0.041
SAGGSAGGSELPDGPALVVLPINSKPVVALAKVNSTGKIEVYIPNPGKKFTFDLDQAEVYPVLSAGGSAGGS [r12_782_TrMRF]	-0.1 ± 0.082	0.533 ± 0.1	0.35 ± 0.061
SAGGSAGGSEVEITVTETEDTVTVTIRFKDTGKTVTITVPKDMTPEEVLARAKELLKKLGIEPSAGGSAGGS [r12_764_TrROS_Hall]	3.91 ± 0.18	3.75 ± 0.16	3.88 ± 0.25
SAGGSAGGSEVKTKVTLKREDPGSASTSTVDLPKEEAEKLIKEGKEIKLPSGKKASFTKVVPESAGGSAGGS [r12_432_JUSTAS]	-0.195 ± 0.11	-0.18 ± 0.24	-0.148 ± 0.2
SAGGSAGGSEYYIYIQIDKNGKIEIVDVVPPGEPMEDMPPEQYDHTIMFPFESPEDALAEILKSAGGSAGGS [r12_452_TrROS]	0.606 ± 0.019	0.731 ± 0.022	0.719 ± 0.075
SAGGSAGGSFKVPGGYKVVSVEEDPENKTVEITFADGSKLTIDIEDPNVFKPVKVEAPEGFDVSAGGSAGGS [r12_149_TrMRF]	1.55 ± 0.081	2.04 ± 0.038	1.89 ± 0.054
SAGGSAGGSGAEEIAKALKELGVKKVEITVERNENGELTVTVRVEVEAPPPKVEVKTEEELKKSAGGSAGGS [r12_246_TrROS_Hall]	0.527 ± 0.1	1.01 ± 0.14	0.939 ± 0.21
SAGGSAGGSGDGDYKNDPNGEQERKPKPPPVPPILVFKVELDIDANGNLDLSPDLGWFPPDAISAGGSAGGS [r12_1027_TrROS]	1.55 ± 0.13	1.03 ± 0.093	1.42 ± 0.14
SAGGSAGGSGDSITLPVSVPKGSELVIENLSTNKKVIIPDDGPVTITIDKGKDGLKISAEVEKSAGGSAGGS [r12_919_TrMRF]	-0.398 ± 0.16	0.106 ± 0.053	-0.0498 ± 0.25
SAGGSAGGSGEVLLLSANSFSFSEGDGLLVVVNLPNGGYVVLPFKKGDLNLNLPSSGYSEFFGSAGGSAGGS [r12_746_TrMRF]	1.3 ± 0.034	1.79 ± 0.046	1.59 ± 0.058
SAGGSAGGSGFPVRLKIWDPDETYTYTVPMDPDNVQKFAEELGEKNFNIETEPNGWATITIPKSAGGSAGGS [r12_292_TrROS]	0.471 ± 0.08	0.95 ± 0.15	0.713 ± 0.22
SAGGSAGGSGGKPLLIFTAMNGPEAEELVKKLLEEGGAGPIVAVVIPAPKDDPLFKEFFEKLKSAGGSAGGS [r12_649_TrMRF]	0.935 ± 0.073	1.47 ± 0.053	1.34 ± 0.14
SAGGSAGGSGGMMPVTLTITPVNPPGASTSSTTIPVNFTSPEEAAAAKEKIAAELPSNATVTGSAGGSAGGS [r20_211_JUSTAS]	0.442 ± 0.0095	-1.1 ± 0.4	0.0375 ± 0.072
SAGGSAGGSGIPVEPIPVRNPKGEIVEVIRFPEDFALVVFPSGERALLRGPELSLRDVVFFPLSAGGSAGGS [r12_491_TrMRF]	0.675 ± 0.023	0.305 ± 0.054	0.533 ± 0.055
SAGGSAGGSGITPAAKKIAAEIEKKYPNEKIKVEEELLPNGYLKIKVTTDNGKKYEIIIKVGGSAGGSAGGS [r20_210_TrMRF]	2.51 ± 0.12	3.51 ± 0.053	3.23 ± 0.077
SAGGSAGGSGMAVSVSVTPVRLPDGSVRLVISFSSGSTVVLDLPESEWTPEQVEALVAELVSASAGGSAGGS [r12_218_JUSTAS]	3.82 ± 0.077	3.9 ± 0.048	3.89 ± 0.058
SAGGSAGGSGMSPEALAIKEQVKAEHPDLRVEVKEKILPNGTLEITVTFDDGTTETYTIPIGESAGGSAGGS [r20_210_JUSTAS]	3.01 ± 0.13	3.36 ± 0.048	3.29 ± 0.086
SAGGSAGGSGMTAEEAREKKVAELKAQGYTPVKVEVVETRTDPATGKVTTKIKIEYKSPKGLTSAGGSAGGS [r20_46_JUSTAS]	0.0908 ± 0.081	0.333 ± 0.12	0.275 ± 0.14
SAGGSAGGSGMTVVTLEAEPETAEEAVAAAIQAIRDALPADETIASVEVSFDPATGKVTVVVESAGGSAGGS [r12_308_JUSTAS]	0.757 ± 0.051	2.01 ± 0.042	1.8 ± 0.12
SAGGSAGGSGMVEEEEYEDPATGVRTRTTTTYLPNGTVVRTPVVYTPDRPVEEVPTVTPIPSGSAGGSAGGS [r20_88_JUSTAS]	1.04 ± 0.075	0.62 ± 0.13	0.958 ± 0.21
SAGGSAGGSGPELRPPDVPSTTVPLKVSPEEAKEILKELLGLPEDVEVPFGSIDPATGVITLVSAGGSAGGS [r12_815_JUSTAS]	1.25 ± 0.091	0.881 ± 0.042	1.03 ± 0.12
